How the values were obtained:
Assay type in all cases: physicochemical
[1] = Modified Wilhelmy surface balance (Langmuir trough): dynamic surface tension versus compressed surface area; conditions: for Wilhelmy-Langmuir Trough Equilibrum (equilibrium adsorption value): after a three (3) minute spreading time, total peptide 0.5 mg/ml; for Wilhelmy-Langmuir Trough Equilibrum (equilibrium adsorption value) / Wilhelmy-Langmuir Trough Max (maximum dynamic surface tension) / Wilhelmy-Langmuir Trough Min (minimum dynamic surface tension): 37° C.; for Wilhelmy-Langmuir Trough Max (maximum dynamic surface tension) / Wilhelmy-Langmuir Trough Min (minimum dynamic surface tension): peptide/lipid admixture, total peptide 0.5 mg/ml (two peptides: 0.25 mg/ml each), 675 μg phospholipid, seven compression-expansion cycles, average of 3 runs; for Surface activity of admixtures, in words: data of Tables 2 and 3 (Wilhelmy balance, King-Clements, pulsating bubble)
Text: The dynamic surface tension lowering properties of the peptide/lipid admixtures were studied using a modified Wilhelmy Surface Balance (Langmuir Trough). The instrument consists of an all Teflon trough and movable Teflon ribbon (dam) barrier system which completely contains and defines a variable surface area. Surface area was varied through the use of a constant rate reversible 3-phase motor to drive the Teflon barrier. A Cahn 2000 electrobalance (Cahn Instruments, Cerittos, CA) with a sandblasted 1 cm platinum plate and stainless steel hangdown wire was employed to determine the surface tension at the liquid-air interface. The entire apparatus was situated in a thermostated incubator set at 45° C. Surface area-surface tension measurements were made by adding 950 ml of 0.15M NaCl to the trough. Subphase temperature was controlled during the measurements at 36°-38° C.
For each experiment 27 ul of peptide/lipid admixture was applied in a random array of 13 (.congruent.2 ul) droplets to the surface of the temperature controlled subphase and allowed to spread spontaneously for 3 minutes. (The 27 ul application corresponds to 675 ug of phospholipid). The trough surface area was then cycled from a maximum (445 sq. cm) to a minimum (178 sq. cm) surface area and back to maximum at a cycling rate of 3 cycles/min (compression ratio 2.5:1). The dynamic surface tension vs surface area was recorded for 7 complete compression-expansion cycles for each application.

[2] = Adsorption rate, King-Clements system (Wilhelmy balance with stirred round Teflon dish); conditions: 10 ml of diluted sample (1:50) added under constant agitation to 70 ml saline subphase; 37° C.
Method: A procedure similar to that described by Notter, et al., Pediatric Res. 16, 515-519, (1982) was employed to determine the absorption rate in the absence of diffusion resistance. The modified Wilhelmy surface balance as described above was used. However, instead of using a Langmuir trough a round Teflon dish (5.1 cm diameter) was employed. The subphase, 70 ml of 0.15M NaCl, was allowed to equilibrate to 37° C. in the incubator and was continuously stirred with a Teflon coated magnetic stirer. An aliquot of the peptide/lipid admixture containing 5 mg of total phospholipid was dispersed in 10 ml of 0.15M NaCl by vortexing for 10 seconds. This dispersion was then added to the saline subphase. Surface tension lowering was monitored using a strip chart recorder connected to the electrobalance output and data collected for 20 minutes.

[3] = Pulsating bubble surfactometer (PBS) surface tension; conditions: after 100 cycles (5 minutes, 20 cycles/minute); phospholipid 1 mg/ml; 37° C.; diluent […] NaCl; mean of triplicate
Method: The PBS equipment (Electronetics, Buffalo, N.Y.) used was essentially equivalent to that described in detail by G. Enhorning, J. Appld. Physiol. 43, 198-203, (1977). Recordings were made of the pressure gradient across the wall of a small air bubble, communicating with ambient air by means of a narrow chimney stack, but otherwise entirely surrounded by a 40 ul volume of the peptide/lipid admixture. The admixture concentration employed for these studies was 1 mg/ml total phospholipid (0.02 mg/ml total peptide) and the diluent was 0.15M NaCl. Immediately prior to loading the sample chamber, the diluted samples were sonicated for 15 seconds to remove any gas nuclei.
The pressure drop across the air-water interface was measured during pulsation by a pressure transducer, and the corresponding surface tension determined through the application of Young's law and the Laplace equation. Measurements were all made at 37° C. and the bubble pulsed at 20 cycles/minute to render respectively a maximum (1.1 mm) and a minimum (0.8 mm) bubble diameter. (This compression/expansion corresponds to a 50% change the surface area of the air-water interface).

For “SPB(53-78): synthetic C-terminal SP-B fragment, sequence based on natural SP-B (YSVILLDTLLGRMLPQLVCRLVLRCS; Pulmonary surfactant-associated protein B; UniProt P07988 253-278, looked up, fragment) [reference compound]”, the “Wilhelmy-Langmuir Trough Equilibrum (equilibrium adsorption value)” value [1] was 40.0 dynes/cm, the “Wilhelmy-Langmuir Trough Max (maximum dynamic surface tension)” value [1] was 49.3 dynes/cm and the “Wilhelmy-Langmuir Trough Min (minimum dynamic surface tension)” value [1] was 0.1 dynes/cm. The “King-Clements Adsorption (adsorption surface tension)” value [2] was 45.0 dynes/cm, the “Surface Tension Values Maximum (pulsating bubble apparatus)” value [3] was 55.5 dynes/cm and the “Surface Tension Values Minimum (pulsating bubble apparatus)” value [3] was 4.9 dynes/cm.

With “C-16 (Palmitic acid)-SP-C (FGIPCCPVHLKRLLIVVVVVVLIVVVIVGALLMG; Pulmonary surfactant-associated protein C N-terminal palmitic acid; UniProt P11686 24-57, looked up, fragment) [C16 -SPC(1-34)]” the “Surface activity of admixtures, in words” value [1] was “unusual surface activity”.

In the case of “C-14 (Myristic acid)-SP-C (FGIPCCPVHLKRLLIVVVVVVLIVVVIVGALLMG; Pulmonary surfactant-associated protein C N-terminal myristic acid; UniProt P11686 24-57, looked up, fragment) [C14 -SPC(1-34), myristic acid (C14) covalently attached to the N-terminal end of synthetic human SP-C(1-34)]”, the “Surface activity of admixtures, in words” value [1] is reported as “unusual surface activity”.

B1: SPB(1-78): synthetic full length SP-B peptide, sequence based on natural SP-B (peptide, UniProt P07988 201-279, looked up)
Pulmonary …: FPIPLPYCWLCRALIKRIQAMIPKGALAVAVAQVCRVVPLVAGGICQCLAERYSVILLDTLLGRMLPQLVCRLVLRCSM
modifications: Pulmonary surfactant-associated protein B
With B1 the “Wilhelmy-Langmuir Trough Equilibrum (equilibrium adsorption value)” value [1] was 38.0 dynes/cm, the “Wilhelmy-Langmuir Trough Max (maximum dynamic surface tension)” value [1] was 45.0 dynes/cm and the “Wilhelmy-Langmuir Trough Min (minimum dynamic surface tension)” value [1] was 0.0 dynes/cm. The “King-Clements Adsorption (adsorption surface tension)” value [2] was 30.0 dynes/cm, the “Surface Tension Values Maximum (pulsating bubble apparatus)” value [3] was 49.0 dynes/cm and the “Surface Tension Values Minimum (pulsating bubble apparatus)” value [3] was 4.2 dynes/cm.

From patent US5700777A, “Fatty acid - pulmonary surfactant conjugates” (Abbott Laboratories, priority 1995, dated 1997)
